{
  "source": "patent US20260167720A1",
  "about": "(Amgen, published 2026)",
  "binders": {"B1": {"name": "MSLN-CDH3 T-cell engager molecule 3 (example to FIG. 2A) (bispecific antibody)", "chain 1": "not shown", "chain 2": "EVQLVESGGGLVQPGGSLKLSCAASGFTFNKYAMNWVRQAPGKGMEWVARIRSKYNNYATYYADAVKDRFTISRDDSKNTLYLQMNNLKTEDTAVYYCVRAGNFGSSYISYFAYWGQGTLVTVSSGGGGQGGGGQGGGGQQTVVTQEPSLTVSPGGTVTITCGSSTGAVTSGNYPNWIQKKPGQAPRGLIGGTKFLAPGTPARFSGSLEGGKAALTLSGVQPEDEAEYYCVLYYSNRWVFGSGTKLTVLGGGGQGGGGQGGGGQDKTHTCPPCPAPELLGGPSVFLFPPKPKDTLMISRTPEVTCVVVDVSHEDPEVKFNWYVDGVEVHNAKTKPCEEQYGSTYRCVSVLTVLHQDWLNGKEYKCKVSNKALPAPIEKTISKAKGQPREPQVYTLPPSRKEMTKNQVSLTCLVKGFYPSDIAVEWESNGQPENNYKTTPPVLKSDGSFFLYSKLTVDKSRWQQGNVFSCSVMHEALHNHYTQKSLSLSPGKGGGGQGGGGQGGGGQEVQLVESGGGLVQPGGSLKLSCAASGFTFNKYAMNWVRQAPGKGMEWVARIRSKYNNYATYYADAVKDRFTISRDDSKNTLYLQMNNLKTEDTAVYYCVRAGNFGSSYISYFAYWGQGTLVTVSSGGGGQGGGGQGGGGQQTVVTQEPSLTVSPGGTVTITCGSSTGAVTSGNYPNWIQKKPGQAPRGLIGGTKFLAPGTPARFSGSLEGGKAALTLSGVQPEDEAEYYCVLYYSNRWVFGSGTKLTVL"}, "B2": {"name": "MSLN-CDH3 T-cell engager molecule 4 (example to FIG. 2B) (bispecific antibody)", "chain 1": "not shown", "chain 2": "EVQLVESGGGLVQPGGSLKLSCAASGFTFNKYAMNWVRQAPGKGMEWVARIRSKYNNYATYYADAVKDRFTISRDDSKNTLYLQMNNLKTEDTAVYYCVRAGNFGSSYISYFAYWGQGTLVTVSSGGGGQGGGGQGGGGQQTVVTQEPSLTVSPGGTVTITCGSSTGAVTSGNYPNWIQKKPGQAPRGLIGGTKFLAPGTPARFSGSLEGGKAALTLSGVQPEDEAEYYCVLYYSNRWVFGSGTKLTVLGGGGQGGGGQGGGGQDKTHTCPPCPAPELLGGPSVFLFPPKPKDTLMISRTPEVTCVVVDVSHEDPEVKFNWYVDGVEVHNAKTKPCEEQYGSTYRCVSVLTVLHQDWLNGKEYKCKVSNKALPAPIEKTISKAKGQPREPQVYTLPPSRKEMTKNQVSLTCLVKGFYPSDIAVEWESNGQPENNYKTTPPVLKSDGSFFLYSKLTVDKSRWQQGNVFSCSVMHEALHNHYTQKSLSLSPGKGGGGQGGGGQGGGGQQVQLQESGPGLVKPSETLSLTCTVSGGSISSSSYFWGWIRQPPGKCLEWIGNIYYSGSSNYNPSLKSRVTISVDTSKNQFSLKLSSVTAADTAVYYCARLPRGDRDAFDIWGQGTMVTVSSGGGGQGGGGQGGGGQEIVMTQSPSSLSASVGDRVTITCRASQGISNYLAWYQQKPGKVPKLLIYAASTLQSGVPSRFSGSGSGTDFTLTISSLQPEDFATYYCQQSYSTPFTFGCGTKVEIK"}, "B3": {"name": "MSLN-CDH3 T-cell engager molecule 5 (example to FIG. 2D) (bispecific antibody, human IgG1, kappa, N297G)", "chain 1": "not shown", "chain 2": "EVQLVESGGGLVQPGGSLKLSCAASGFTFNKYAMNWVRQAPGKGMEWVARIRSKYNNYATYYADAVKDRFTISRDDSKNTLYLQMNNLKTEDTAVYYCVRAGNFGSSYISYFAYWGQGTLVTVSSGGGGQGGGGQGGGGQQTVVTQEPSLTVSPGGTVTITCGSSTGAVTSGNYPNWIQKKPGQAPRGLIGGTKFLAPGTPARFSGSLEGGKAALTLSGVQPEDEAEYYCVLYYSNRWVFGSGTKLTVLGGGGGDKTHTCPPCPAPELLGGPSVFLFPPKPKDTLMISRTPEVTCVVVDVSHEDPEVKFNWYVDGVEVHNAKTKPCEEQYGSTYRCVSVLTVLHQDWLNGKEYKCKVSNKALPAPIEKTISKAKGQPREPQVYTLPPSRKEMTKNQVSLTCLVKGFYPSDIAVEWESNGQPENNYKTTPPVLKSDGSFFLYSKLTVDKSRWQQGNVFSCSVMHEALHNHYTQKSLSLSPGKGGGGQGGGGQGGGGQQVQLQESGPGLVKPSETLSLTCTVSGGSISSSSYFWGWIRQPPGKCLEWIGNIYYSGSSNYNPSLKSRVTISVDTSKNQFSLKLSSVTAADTAVYYCARLPRGDRDAFDIWGQGTMVTVSSGGGGQGGGGQGGGGQEIVMTQSPSSLSASVGDRVTITCRASQGISNYLAWYQQKPGKVPKLLIYAASTLQSGVPSRFSGSGSGTDFTLTISSLQPEDFATYYCQQSYSTPFTFGCGTKVEIK", "chain 3": "EIQMTQSPSSLSASVGDRVTITCRASQDISNYLNWYQQKPGKVPKLLIYYTSRLHSGVPSRFSGSGSGTDFTLTISSLQPEDVATYYCVQYAQFPLTFGCGTKVEIKRTVAAPSVFIFPPSDEQLKSGTASVVCLLNNFYPREAKVQWKVDNALQSGNSQESVTEQDSKDSTYSLESTLTLSKADYEKHKVYACEVTHQGLSSPVTKSFNRGEC"}},
  "assay_in_all_cases": "cell-based or functional assay",
  "key": {"[1]": {"molecular_target": "T1, CDH3 (Cadherin-3, P-Cadherin) on HCT116 or GSU cells (UniProt P22223 108-829, limits assumed)"}, "[2]": {"molecular_target": "T2, MSLN (Mesothelin) on HCT116 or GSU cells (UniProt Q13421 37-598, limits assumed)"}, "[3]": {"molecular_target": "T1, CDH3 (Cadherin-3, P-Cadherin) on HCT116 …", "remark": "listed apart in the source"}, "[4]": {"molecular_target": "T2, MSLN (Mesothelin) on HCT116 or GSU cells", "remark": "listed apart in the source"}},
  "data": [
    {"binder": "B1", "values": [
      {"measurement": "EC50 HCT116 KO MSLN [pM]; TDCC, MSLN knocked out, CDH3 left", "setting": "[1]", "result": 0.38, "unit": "pM"},
      {"measurement": "EC50 HCT116 WT [pM]; TDCC, cells double positive for CDH3 and MSLN", "setting": "[1]", "result": 0.005, "unit": "pM"},
      {"measurement": "EC50 HCT116 KO CDH3 [pM]; TDCC, CDH3 knocked out, MSLN left", "setting": "[2]", "result": 3.19, "unit": "pM"},
      {"measurement": "EC50 HCT116 WT [pM]; TDCC, cells double positive for CDH3 and MSLN", "setting": "[2]", "result": 0.005, "unit": "pM"},
      {"measurement": "EC50 GSU KO MSLN [pM]; TDCC, MSLN knocked out, CDH3 left", "setting": "[3]", "result": 55.3, "unit": "pM"},
      {"measurement": "EC50 GSU WT [pM]; TDCC, cells double positive for CDH3 and MSLN", "setting": "[3]", "result": 0.073, "unit": "pM"},
      {"measurement": "EC50 GSU KO CDH3 [pM]; TDCC, CDH3 knocked out, MSLN left", "setting": "[4]", "result": 7.5, "unit": "pM"},
      {"measurement": "EC50 GSU WT [pM]; TDCC, cells double positive for CDH3 and MSLN", "setting": "[4]", "result": 0.073, "unit": "pM"}
    ]},
    {"binder": "B2", "values": [
      {"measurement": "EC50 HCT116 KO MSLN [pM]; TDCC, MSLN knocked out, CDH3 left", "setting": "[1]", "result": 0.62, "unit": "pM"},
      {"measurement": "EC50 HCT116 WT [pM]; TDCC, cells double positive for CDH3 and MSLN", "setting": "[1]", "result": 0.027, "unit": "pM"},
      {"measurement": "EC50 HCT116 KO CDH3 [pM]; TDCC, CDH3 knocked out, MSLN left", "setting": "[2]", "result": 3.5, "unit": "pM"},
      {"measurement": "EC50 HCT116 WT [pM]; TDCC, cells double positive for CDH3 and MSLN", "setting": "[2]", "result": 0.027, "unit": "pM"},
      {"measurement": "EC50 GSU KO MSLN [pM]; TDCC, MSLN knocked out, CDH3 left", "setting": "[3]", "result": 36.8, "unit": "pM"},
      {"measurement": "EC50 GSU WT [pM]; TDCC, cells double positive for CDH3 and MSLN", "setting": "[3]", "result": 0.098, "unit": "pM"},
      {"measurement": "EC50 GSU KO CDH3 [pM]; TDCC, CDH3 knocked out, MSLN left", "setting": "[4]", "result": 2.89, "unit": "pM"},
      {"measurement": "EC50 GSU WT [pM]; TDCC, cells double positive for CDH3 and MSLN", "setting": "[4]", "result": 0.098, "unit": "pM"}
    ]},
    {"binder": "B3", "values": [
      {"measurement": "EC50 HCT116 KO MSLN [pM]; TDCC, MSLN knocked out, CDH3 left", "setting": "[1]", "result": 2.25, "unit": "pM"},
      {"measurement": "EC50 HCT116 WT [pM]; TDCC, cells double positive for CDH3 and MSLN", "setting": "[1]", "result": 0.039, "unit": "pM"},
      {"measurement": "EC50 HCT116 KO CDH3 [pM]; TDCC, CDH3 knocked out, MSLN left", "setting": "[2]", "result": 8.07, "unit": "pM"},
      {"measurement": "EC50 HCT116 WT [pM]; TDCC, cells double positive for CDH3 and MSLN", "setting": "[2]", "result": 0.039, "unit": "pM"},
      {"measurement": "EC50 GSU KO MSLN [pM]; TDCC, MSLN knocked out, CDH3 left", "setting": "[3]", "result": 175, "unit": "pM"},
      {"measurement": "EC50 GSU WT [pM]; TDCC, cells double positive for CDH3 and MSLN", "setting": "[3]", "result": 0.128, "unit": "pM"},
      {"measurement": "EC50 GSU KO CDH3 [pM]; TDCC, CDH3 knocked out, MSLN left", "setting": "[4]", "result": 10.5, "unit": "pM"},
      {"measurement": "EC50 GSU WT [pM]; TDCC, cells double positive for CDH3 and MSLN", "setting": "[4]", "result": 0.128, "unit": "pM"}
    ]}
  ]
}
